The chains are these.
B1: 4J21 (antibody, V domains shown)
VH: QVQLVQSGSELKKPGASVKVSCKASGYSFTSYSINWVRQAPGQGPEWMGWIDTNTGNPTYAQDFAGRFVFSLDTSVTTAYLQISSLKAGDTAVYYCATYYVDLWGSYRQDYYGMDVWGHGTLVTVSS
VL: QSVVTQPPSVSGTPGQGVTISCSGGSSNIGSNPVNWYQMVPGTAPKLLLYTNNQRPSGVPDRFSGSKSGTSASLAINGLQSEDEADYYCAVWDDSLSGRWVFGGGTKLTVL
B2: 3A2 (antibody, V domains shown)
VH: QVQLVQSGGGVVQPGRSLRLSCAASGFTFSNYVMEWVRQAPGKGLEWVAVISYDGSNKYYADSVKGRFTISRDNSKNTLYLQMNSLRAEDTAVYYCARSEWESSYGSGNYYTDYFYYYAMDVWGPGTLVTVSS
VL: QAVVTQSPLSLPVTPGEPASISCRSNQSLLRGIRYNYLDWYLQKPGQSPQLLIYLGSNRASGVPDRFSGSGSATDFTLKISRVEAEDVGVYYCMQALQTPTTFGQGTRLEIK
B3: 3B4 (antibody, V domains shown)
VH: QVQLEESGPTLVKPTQTLTLTCSFSGFSLTTTGVTVGWIRQPPGKALEWLALIYWDDDKRYSPSLKSRLTITKDTSKNQVVLTMTNMDPVDTATYYCAHSTGYYDSSGYRGALDAFAVWGQGTLVTVSS
VL: QIVVTQFPDSPAVSLGERATINCKSSQSVLYHSNNKNYLAWYQQKPGQPPNLLIYWASARQSGVPDRFSGSGSGTDFTLTISSLQAEDVAVYYCQQYYSTPYTFGQGTKLEIK
B4: 2D12 (antibody, V domains shown)
VH: QVQLVQSGAEVKKPGASVKVSCKASGYSFNIYGISWVRQAPGQGLEWMGWISAYNGNTNYAQKLQGRVTMTTDTSTSTAYMELRSLRSDDTAVYYCARPLWGEFYYDIWGQGTLVTVSS
VL: QAVVTQSPGTLSLSPGERATLSCRASQSVSSGYSAWYQQKPGQAPRLLIYGASKRAAGIPDRFSGSGSGTDFTLTISRLEPEDFAVYYCQLFATSPPPFGQGTRLEIK
B5: 8G18 (antibody, V domains shown)
VH: QVQLVQSGAQVKKPGSSVKVSCKPSGGTFNNNGISWVRQAPGQGLEWMGGIVPNFGTPTYGQDFQGRVTITADESTSTVFLELTRLRSDDTAVYFCARGRTAVTPMQLGLQFYFDFWGRGTLVTVSS
VL: QTVVTQEPSLTVSPGGTVTLTCSANSGAVTSDYYPNWFQQKPGQAPRALIYSASNKFSWTPARFSGSLLGGKAALTLSGAQPEDEAEYYCLVYSGDGVVFGGGTKLTV
B6: 5O14 (antibody, V domains shown)
VH: QVQLVQSGGRVVQAGRSLRLSCAASGFTFSMYGVHWVRQAPGKGLEWVAVIWNDGSKEYYGDSVKGRFTISRDNSRNTLYLQMNSLRVDDTAVYFCARDGIPDPERGDYGGLDYWGQGTLVTVSS
VL: QTVVTQFPSSPFASVGDGVTITCRARQSISSYVNWYQQKPGKAPKLLIYATSSLQSGVPSRFSGSGYGTDFTLTISGLQPEDFATYYCQQSYSFPRTFGQGTKVEIK
B7: 1L1 (antibody, V domains shown)
VH: QVQLVQSGPTLVKPTQTLTLTCTFSGFSLSISGVGVGWIRQPPGKALEWLALIYWDDDKRYSPSLKSRLTITKDTSENQVVLTMTNMDPVDTATYYCAHSMTKGGAIYGQAYFEYWGQGTLV
VL: PSPALEPDSDVGGYNYVSWYQQHPGKAPKLIIYDVTDRPSGVSNRFSASKSANTASLTISGLQAEDEADYYCSSYTSSST
B8: 4N12 (antibody, V domains shown)
VH: QVQLVQSGAEVKKPGASVKVSCKVSGYILSKLSVHWVRQAPGKGLEWMGGSEREDGETVYAQKFQGRISLTEDTSIETAYMELSSLSSEDTAVYYCATGGFWSMIGGNGVDYWGQGTLVTVSS
VL: QAVVTQSPSSLPASVGDRVTITCRASQDIRNNLGWYQQKPGKAPERLIYGTSNLQSGVPSRFSGSGSGTEFTLTISSLQPEDFATYYCLQHNSYPPTFGRGTKVEIK
B9: 2C2 (antibody, V domains shown)
VH: QVQLVQSGGGLVQPGRSLTLSCAASGFTFDVYAMHWVRQAPGKGLEWVAGISWNSGSVGYADSMKGRFTISRDNAKNSLYLQINSLRAEDTALYYCAKAFWFGELSGYGMDVWGQGTLVTVSS
VL: QAVVTQPPSASGFPGQSVTISCTGTSSDVGSYNYVSWYQQHPGKAPKLIIYAVTRRPSGVPERFSGSKSGNTASLTVSGLQAEDEADYYCTSYAGNNKDVFGTGTKVTVL
B10: 3E23 (antibody, V domains shown)
VH: QVQLVQSGPGLVKPSDTLSLTCSVSSDALRSRSYYWGWVRQPPGKGLEWIGTVSYSGGTYYNPSLQSRVTVSVDTSKNHFSLRLNSVTAADAAVYYCARSYFYDGSGYYYLSYFDSWGQGTLVTVSS
VL: QAVVTQEPSLTVSPGGTVTLTCASSTGAVTSGHYPNWFQQKPGQPPRALIYSTDNKHSWTPARFSGSLLGVKAALTLSDVQPEDEADYYCLLHFGGVVVFGGGTKLTVL
B11: 4J14 (antibody, V domains shown)
VH: QVQLVQSGAEVKKPGSSVKVSCKASGGTSSTYAISWVRQAPGQGLEWMGGSIPVFATVNYAQKFQGRLTITADESTSTVYMELSSLRSEDTAVYFCASPYCSSMNCYTTFYYFDFWGQGTLVTVSS
VL: QAVVTQPASVFGFPGQSITISCTGTSSDFGTYNYVSWYQQHPGQAPKLMIFDVSNRPSGVSNRFSGSKSGNTASLTISGLQAEDEASYYCSSYTSGSTLYGGGTKLTVL
B12: 2B4 (antibody, V domains shown)
VH: QVQLVQSGSELKKPGASVKVSCKASGYSFTSYSINWVRQAPGQGPEWMGWIDTNTGNPTYAQDFAGRFVFSLDTSVTTAYLQISSLKAGDTAVYYCATYYVDLWGSYRQDYYGMDVWGH
VL: B1 VL with V4L, V10A, G17R, L108V

The results in this text go back to patent publication US20180079802A1 (VANDERBILT UNIVERSITY, published 2018).

Substitutions are numbered along the chain they refer to. Where only a bound is given, the exact number is not on record here.

In one assay the target is CHIKV p62-E1 (Chikungunya virus). Nature of the assay: SPR (Biacore T100), IgG captured by anti-human IgG, p62-E1 injected.
As to B1, the Kd turned out to be 0.54 nM, the koff is 6.2e-05 s⁻¹, the kon turned out to be 119000 M⁻¹ s⁻¹ and the “t1/2” value stood at 186 min.

Regarding B2, the Kd was found to be 4.78 nM, the koff was found to be 0.00101 s⁻¹, the kon came out at 212000 M⁻¹ s⁻¹ and the “t1/2” value is 11 min.

Consider B3, for which binding was characterised by a dissociation constant (Kd) of 0.54 nM, the koff turned out to be 0.000156 s⁻¹, the kon turned out to be 291000 M⁻¹ s⁻¹ and the “t1/2” value came out at 74 min.

Take B4: binding was characterised by a dissociation constant (Kd) of 0.49 nM, the koff was approximately 0.00086 s⁻¹, the kon is 1.75e+06 M⁻¹ s⁻¹ and the “t1/2” value is 13 min.

For B5, binding was put at a Kd of 0.48 nM, the koff was determined as 0.000188 s⁻¹, the kon worked out at 390000 M⁻¹ s⁻¹ and the “t1/2” value came to 62 min.

For the molecule B6, the Kd came out at 1.15 nM, the koff came out at 0.000911 s⁻¹, the kon turned out to be 790000 M⁻¹ s⁻¹ and the “t1/2” value amounted to 13 min.

For the molecule B7, the affinity, expressed as Kd, was 3.79 nM; the koff amounted to 0.000273 s⁻¹; the kon amounted to 88000 M⁻¹ s⁻¹; the “t1/2” value came to 42 min.

B8: the affinity, expressed as Kd, was 0.95 nM; the koff amounted to 0.000118 s⁻¹; the kon was 124000 M⁻¹ s⁻¹; the “t1/2” value amounted to 98 min.

For the molecule B9, the Kd is 4.59 nM, the koff was found to be 0.000608 s⁻¹, the kon came to 154000 M⁻¹ s⁻¹ and the “t1/2” value was found to be 19 min.

For the molecule B10, the koff is 0.000267 s⁻¹ and the “t1/2” value was found to be 43 min.

As to B11, binding was put at a Kd of 9.94 nM, the koff amounted to 0.00153 s⁻¹, the kon was determined as 161000 M⁻¹ s⁻¹ and the “t1/2” value was found to be 8 min.

Another assay has as its target CHIKV strain RSU1 (Asian genotype) (Chikungunya virus strain RSU1). In words: cell-based or functional assay.
B12: the “Neutralization (FRNT), EC50” value was 6.5 ng/mL.

For the molecule B1, the “Neutralization (FRNT), EC50” value turned out to be 7.7 ng/mL.

With B6, the “Neutralization (FRNT), EC50” value was found to be 17.3 ng/mL.

Regarding B9, the “Neutralization (FRNT), EC50” value was more than 10000 ng/mL.

A further assay addresses CHIKV strain NI 64 IbH 35 (West African genotype) (Chikungunya virus strain NI 64 IbH 35). Nature of the assay: cell-based or functional assay.
Turning to B12, the “Neutralization (FRNT), EC50” value is 3.2 ng/mL.

On to B1, for which the “Neutralization (FRNT), EC50” value was 5.2 ng/mL.

In the case of B6, the “Neutralization (FRNT), EC50” value came out at 6.7 ng/mL.

Regarding B9, the “Neutralization (FRNT), EC50” value is more than 10000 ng/mL.

The next assay deals with CHIKV strain 99659 (Asian genotype, 2014 Caribbean) (Chikungunya virus strain 99659). Nature of the assay: cell-based or functional assay.
With B12, the “Neutralization (FRNT), EC50” value stood at 7 ng/mL.

Turning to B1, the “Neutralization (FRNT), EC50” value stood at 7.2 ng/mL.

B6: the “Neutralization (FRNT), EC50” value was found to be 6.2 ng/mL.

For a further assay, the target named is CHIKV strain LR2006 OPY1 (LR) (ECSA genotype) (Chikungunya virus strain LR2006 OPY1). Nature of the assay: cell-based or functional assay.
For B12, the “Neutralization (FRNT), EC50” value is 5.6 ng/mL.

As for B1, the “Neutralization (FRNT), EC50” value came to 7.4 ng/mL.

In the case of B6, the “Neutralization (FRNT), EC50” value came to 12.1 ng/mL.

With B9, the “Neutralization (FRNT), EC50” value is more than 10000 ng/mL.
